B1: RNF115 peptide 69-84 (E3 ubiquitin-protein ligase RNF115), 16-mer library wild type / MDM2 SWIB (MDM2 SWIB/MDM2 domain, residues 17-125) (parent complex)
chain 1: THFAELWGHLDHTMFF
chain 2: SQIPASEQETLVRPKPLLLKLLKSVGAQKDTYTMKEVLFYLGQYIMTKRLYDEKQQHIVYCSNDLLGDLFGVPSFSVKEHRKIYTMIYRNLVVVNQQESSDSGTSVSEN

Variants of: B1
Assay: proteomic peptide phage display deep mutational scan (ProP-PD DMS): M13 P8 16-mer library selected against immobilised GST-tagged bait for four days (rounds), NGS of the eluted pools per day and pseudo-replica; bait immobilised on MaxiSorp plates (10 µg), library pre-cleared on GST, 2 h binding at 4 °C, five washes; one round per day, days 1-4; value from days 2 and 3

Variant | screen value
chain 1 T13Q | 0.000442 average fractional NGS count over selection days 2 and 3 (reads of this peptide / all reads for the bait, averaged over …
chain 1 T13H | 0.00485 average fractional NGS count over selection days 2 and 3 (reads of this peptide / all reads for the bait, averaged over …
chain 1 T13M | 0.000376 average fractional NGS count over selection days 2 and 3 (reads of this peptide / all reads for the bait, averaged over …
chain 1 T13A | 0.00106 average fractional NGS count over selection days 2 and 3 (reads of this peptide / all reads for the bait, averaged over …
chain 1 T13P | 0.000265 average fractional NGS count over selection days 2 and 3 (reads of this peptide / all reads for the bait, averaged over …
chain 1 T13W | 0.000505 average fractional NGS count over selection days 2 and 3 (reads of this peptide / all reads for the bait, averaged over …
chain 1 T13V | 0.0019 average fractional NGS count over selection days 2 and 3 (reads of this peptide / all reads for the bait, averaged over …
chain 1 L10V | 0.000492 average fractional NGS count over selection days 2 and 3 (reads of this peptide / all reads for the bait, averaged over …
chain 1 L10F | 0.00105 average fractional NGS count over selection days 2 and 3 (reads of this peptide / all reads for the bait, averaged over …
chain 1 L10I | 0.00104 average fractional NGS count over selection days 2 and 3 (reads of this peptide / all reads for the bait, averaged over …
chain 1 L10M | 0.00099 average fractional NGS count over selection days 2 and 3 (reads of this peptide / all reads for the bait, averaged over …
chain 1 L6A | 0.00179 average fractional NGS count over selection days 2 and 3 (reads of this peptide / all reads for the bait, averaged over …
chain 1 L6F | 0.00096 average fractional NGS count over selection days 2 and 3 (reads of this peptide / all reads for the bait, averaged over …
chain 1 L6V | 0.000773 average fractional NGS count over selection days 2 and 3 (reads of this peptide / all reads for the bait, averaged over …
chain 1 L6M | 0.000951 average fractional NGS count over selection days 2 and 3 (reads of this peptide / all reads for the bait, averaged over …
chain 1 A4P | 0.000473 average fractional NGS count over selection days 2 and 3 (reads of this peptide / all reads for the bait, averaged over …
chain 1 A4M | 0.000942 average fractional NGS count over selection days 2 and 3 (reads of this peptide / all reads for the bait, averaged over …
chain 1 A4T | 0.000121 average fractional NGS count over selection days 2 and 3 (reads of this peptide / all reads for the bait, averaged over …
chain 1 A4F | 0.000182 average fractional NGS count over selection days 2 and 3 (reads of this peptide / all reads for the bait, averaged over …
chain 1 A4V | 0.000584 average fractional NGS count over selection days 2 and 3 (reads of this peptide / all reads for the bait, averaged over …
chain 1 A4E | 0.000667 average fractional NGS count over selection days 2 and 3 (reads of this peptide / all reads for the bait, averaged over …
chain 1 A4I | 0.000788 average fractional NGS count over selection days 2 and 3 (reads of this peptide / all reads for the bait, averaged over …
chain 1 A4W | 0.000398 average fractional NGS count over selection days 2 and 3 (reads of this peptide / all reads for the bait, averaged over …
chain 1 A4S | 0.00536 average fractional NGS count over selection days 2 and 3 (reads of this peptide / all reads for the bait, averaged over …

Variant | screen value
chain 1 T1M | 0.0023 average fractional NGS count over selection days 2 and 3 (reads of this peptide / all reads for the bait, averaged over …
chain 1 T1F | 0.000233 average fractional NGS count over selection days 2 and 3 (reads of this peptide / all reads for the bait, averaged over …
chain 1 T1V | 0.00156 average fractional NGS count over selection days 2 and 3 (reads of this peptide / all reads for the bait, averaged over …
chain 1 T1G | 0.000168 average fractional NGS count over selection days 2 and 3 (reads of this peptide / all reads for the bait, averaged over …
chain 1 T1H | 0.00126 average fractional NGS count over selection days 2 and 3 (reads of this peptide / all reads for the bait, averaged over …
chain 1 T1Y | 0.000395 average fractional NGS count over selection days 2 and 3 (reads of this peptide / all reads for the bait, averaged over …
chain 1 T1D | 0.000599 average fractional NGS count over selection days 2 and 3 (reads of this peptide / all reads for the bait, averaged over …
chain 1 F15Q | 0.0113 average fractional NGS count over selection days 2 and 3 (reads of this peptide / all reads for the bait, averaged over …
chain 1 F15L | 0.0296 average fractional NGS count over selection days 2 and 3 (reads of this peptide / all reads for the bait, averaged over …
chain 1 F15M | 0.0114 average fractional NGS count over selection days 2 and 3 (reads of this peptide / all reads for the bait, averaged over …
chain 1 F15Y | 0.00151 average fractional NGS count over selection days 2 and 3 (reads of this peptide / all reads for the bait, averaged over …
chain 1 F15S | 0.0126 average fractional NGS count over selection days 2 and 3 (reads of this peptide / all reads for the bait, averaged over …
chain 1 F15W | 0.00256 average fractional NGS count over selection days 2 and 3 (reads of this peptide / all reads for the bait, averaged over …
chain 1 F15H | 0.000286 average fractional NGS count over selection days 2 and 3 (reads of this peptide / all reads for the bait, averaged over …
chain 1 F15D | 0.00754 average fractional NGS count over selection days 2 and 3 (reads of this peptide / all reads for the bait, averaged over …
chain 1 F15R | 0.00042 average fractional NGS count over selection days 2 and 3 (reads of this peptide / all reads for the bait, averaged over …
chain 1 H2Q | 0.00104 average fractional NGS count over selection days 2 and 3 (reads of this peptide / all reads for the bait, averaged over …
chain 1 H2A | 0.000678 average fractional NGS count over selection days 2 and 3 (reads of this peptide / all reads for the bait, averaged over …
chain 1 H2N | 0.000593 average fractional NGS count over selection days 2 and 3 (reads of this peptide / all reads for the bait, averaged over …
chain 1 H2S | 0.0241 average fractional NGS count over selection days 2 and 3 (reads of this peptide / all reads for the bait, averaged over …
chain 1 H2E | 0.000801 average fractional NGS count over selection days 2 and 3 (reads of this peptide / all reads for the bait, averaged over …
chain 1 H2I | 0.000473 average fractional NGS count over selection days 2 and 3 (reads of this peptide / all reads for the bait, averaged over …
chain 1 H2D | 0.00139 average fractional NGS count over selection days 2 and 3 (reads of this peptide / all reads for the bait, averaged over …
chain 1 H2R | 0.000186 average fractional NGS count over selection days 2 and 3 (reads of this peptide / all reads for the bait, averaged over …

Variant | screen value
chain 1 H2W | 0.000523 average fractional NGS count over selection days 2 and 3 (reads of this peptide / all reads for the bait, averaged over …
chain 1 H2V | 0.00468 average fractional NGS count over selection days 2 and 3 (reads of this peptide / all reads for the bait, averaged over …
chain 1 H2G | 0.0014 average fractional NGS count over selection days 2 and 3 (reads of this peptide / all reads for the bait, averaged over …
chain 1 D11M | 0.000791 average fractional NGS count over selection days 2 and 3 (reads of this peptide / all reads for the bait, averaged over …
chain 1 D11Q | 0.000111 average fractional NGS count over selection days 2 and 3 (reads of this peptide / all reads for the bait, averaged over …
chain 1 D11P | 0.000507 average fractional NGS count over selection days 2 and 3 (reads of this peptide / all reads for the bait, averaged over …
chain 1 D11L | 0.000447 average fractional NGS count over selection days 2 and 3 (reads of this peptide / all reads for the bait, averaged over …
chain 1 D11A | 0.0112 average fractional NGS count over selection days 2 and 3 (reads of this peptide / all reads for the bait, averaged over …
chain 1 D11Y | 0.000538 average fractional NGS count over selection days 2 and 3 (reads of this peptide / all reads for the bait, averaged over …
chain 1 D11E | 0.000686 average fractional NGS count over selection days 2 and 3 (reads of this peptide / all reads for the bait, averaged over …
chain 1 D11S | 0.00405 average fractional NGS count over selection days 2 and 3 (reads of this peptide / all reads for the bait, averaged over …
chain 1 D11T | 0.000142 average fractional NGS count over selection days 2 and 3 (reads of this peptide / all reads for the bait, averaged over …
chain 1 F3Q | 0.000412 average fractional NGS count over selection days 2 and 3 (reads of this peptide / all reads for the bait, averaged over …
chain 1 F3T | 9.19e-05 average fractional NGS count over selection days 2 and 3 (reads of this peptide / all reads for the bait, averaged over …
chain 1 G8H | 0.00286 average fractional NGS count over selection days 2 and 3 (reads of this peptide / all reads for the bait, averaged over …
chain 1 G8T | 0.00199 average fractional NGS count over selection days 2 and 3 (reads of this peptide / all reads for the bait, averaged over …
chain 1 G8A | 0.000308 average fractional NGS count over selection days 2 and 3 (reads of this peptide / all reads for the bait, averaged over …
chain 1 G8M | 0.00018 average fractional NGS count over selection days 2 and 3 (reads of this peptide / all reads for the bait, averaged over …
chain 1 G8N | 0.00558 average fractional NGS count over selection days 2 and 3 (reads of this peptide / all reads for the bait, averaged over …
chain 1 G8R | 0.000199 average fractional NGS count over selection days 2 and 3 (reads of this peptide / all reads for the bait, averaged over …
chain 1 G8W | 0.000927 average fractional NGS count over selection days 2 and 3 (reads of this peptide / all reads for the bait, averaged over …
chain 1 G8Y | 0.00157 average fractional NGS count over selection days 2 and 3 (reads of this peptide / all reads for the bait, averaged over …

— paper PMC12102759 (2025)
